Reference: US20180155451A1 (published 2018)

T1: FcγRIIb extracellular domain with C-terminal His tag (human, UniProt P31994 43-217)
T1 construct: extracellular domain; Soluble receptor expressed in FreeStyle293 cells and used as analyte in Biacore; also called FcgRIIb; 2b; not shown: His tag at the C terminus
T1 sequence (looked up): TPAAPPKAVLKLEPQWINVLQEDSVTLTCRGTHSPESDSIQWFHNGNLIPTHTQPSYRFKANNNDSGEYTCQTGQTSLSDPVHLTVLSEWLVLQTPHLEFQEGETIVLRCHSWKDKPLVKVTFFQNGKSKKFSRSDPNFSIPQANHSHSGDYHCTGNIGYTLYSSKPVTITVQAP

T2: FcγRIIa H (human, UniProt P12318 34-217)
T2 construct: extracellular domain; Soluble His-tagged extracellular domain expressed in FreeStyle293 cells; also called FcγRIIa type H; FcgRIIa H; not shown: His tag attached to the C terminus
T2 sequence (looked up): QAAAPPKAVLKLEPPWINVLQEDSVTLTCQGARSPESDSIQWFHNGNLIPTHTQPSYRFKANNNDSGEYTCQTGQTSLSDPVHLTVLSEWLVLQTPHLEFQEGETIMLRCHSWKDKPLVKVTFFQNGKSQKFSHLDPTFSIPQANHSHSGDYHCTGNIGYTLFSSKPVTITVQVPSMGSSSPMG

T3: FcγRIIb (human, UniProt P31994 43-217)
T3 construct: extracellular domain; Soluble His-tagged extracellular domain expressed in FreeStyle293 cells; also called FcgRIIb; 2b; not shown: His tag attached to the C terminus
T3 sequence (looked up): T1 sequence (looked up)

B1: heterodimerized antibody GpH7-A5/GpH7-B3 variant Y296_08L/GpL16-k0 (antibody, human IgG1, kappa)
heavy 1: not shown
heavy 2: not shown
light: DIVMTQSPLSLPVTPGEPASISCQASESLVHSNRNTYLHWYLQKPGQSPQLLIYKVSNRFSGVPDRFSGSGSGTDFTLKISRVEAEDVGVYYCSQNTHVPPTFGQGTKVEIERTVAAPSVFIFPPSDEQLKSGTASVVCLLNNFYPREAKVQWKVDNALQSGNSQESVTEQDSKDSTYSLSSTLTLSKADYEKHKVYACEVTHQGLSSPVTKSFNRGEC
notes: Substitution in only one H chain (GpH7-B3 side); also called He Ab
B2: GpH7-B3 variant Q295_09D/GpL16-k0 (antibody, human IgG1, kappa)
heavy: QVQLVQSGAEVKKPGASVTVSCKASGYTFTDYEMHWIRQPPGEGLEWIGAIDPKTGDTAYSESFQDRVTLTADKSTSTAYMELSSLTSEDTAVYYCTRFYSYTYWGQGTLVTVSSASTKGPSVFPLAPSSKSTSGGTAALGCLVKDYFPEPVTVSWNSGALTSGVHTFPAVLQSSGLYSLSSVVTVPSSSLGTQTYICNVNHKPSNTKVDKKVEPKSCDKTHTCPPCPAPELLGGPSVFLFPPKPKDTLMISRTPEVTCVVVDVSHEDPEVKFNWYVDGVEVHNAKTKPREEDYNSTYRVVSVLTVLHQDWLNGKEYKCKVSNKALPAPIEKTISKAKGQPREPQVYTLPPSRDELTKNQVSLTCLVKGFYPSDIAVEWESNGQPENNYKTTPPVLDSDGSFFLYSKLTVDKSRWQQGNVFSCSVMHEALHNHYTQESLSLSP
light: B1 light
notes: mutation in both H chains; also called Ho Ab Q295_09D; Q295D
B3: GpH7-B3 variant P271_14T/GpL16-k0 (antibody, human IgG1, kappa)
heavy: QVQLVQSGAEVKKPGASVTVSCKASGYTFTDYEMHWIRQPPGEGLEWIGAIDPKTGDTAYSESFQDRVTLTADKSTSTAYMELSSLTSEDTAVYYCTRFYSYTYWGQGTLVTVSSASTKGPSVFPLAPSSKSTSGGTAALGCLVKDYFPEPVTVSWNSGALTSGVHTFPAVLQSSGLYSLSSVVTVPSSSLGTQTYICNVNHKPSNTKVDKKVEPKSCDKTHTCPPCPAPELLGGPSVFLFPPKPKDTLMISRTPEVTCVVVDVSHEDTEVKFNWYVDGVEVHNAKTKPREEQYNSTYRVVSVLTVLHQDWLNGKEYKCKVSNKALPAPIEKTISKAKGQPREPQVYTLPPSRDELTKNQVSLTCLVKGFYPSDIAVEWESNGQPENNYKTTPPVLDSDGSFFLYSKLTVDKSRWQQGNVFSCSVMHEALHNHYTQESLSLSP
light: B1 light
notes: mutation in both H chains; also called Ho Ab P271_14T; P271T
B4: GpH7-B3 variant P271_15Y/GpL16-k0 (antibody, human IgG1, kappa)
heavy: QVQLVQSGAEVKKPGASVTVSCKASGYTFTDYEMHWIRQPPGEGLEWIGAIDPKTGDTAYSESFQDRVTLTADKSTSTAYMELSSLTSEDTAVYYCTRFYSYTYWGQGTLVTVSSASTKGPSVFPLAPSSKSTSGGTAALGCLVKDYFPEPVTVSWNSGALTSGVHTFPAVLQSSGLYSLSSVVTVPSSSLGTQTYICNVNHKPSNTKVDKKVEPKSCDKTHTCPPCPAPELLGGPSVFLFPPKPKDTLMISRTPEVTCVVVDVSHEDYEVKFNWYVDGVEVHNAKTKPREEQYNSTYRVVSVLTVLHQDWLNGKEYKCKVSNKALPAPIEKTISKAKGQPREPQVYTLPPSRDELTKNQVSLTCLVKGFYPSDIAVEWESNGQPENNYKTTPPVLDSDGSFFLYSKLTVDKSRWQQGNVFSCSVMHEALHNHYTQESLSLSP
light: B1 light
notes: mutation in both H chains; also called Ho Ab P271_15Y; P271Y
B5: GpH7-B3 variant Q295_05P/GpL16-k0 (antibody, human IgG1, kappa)
heavy: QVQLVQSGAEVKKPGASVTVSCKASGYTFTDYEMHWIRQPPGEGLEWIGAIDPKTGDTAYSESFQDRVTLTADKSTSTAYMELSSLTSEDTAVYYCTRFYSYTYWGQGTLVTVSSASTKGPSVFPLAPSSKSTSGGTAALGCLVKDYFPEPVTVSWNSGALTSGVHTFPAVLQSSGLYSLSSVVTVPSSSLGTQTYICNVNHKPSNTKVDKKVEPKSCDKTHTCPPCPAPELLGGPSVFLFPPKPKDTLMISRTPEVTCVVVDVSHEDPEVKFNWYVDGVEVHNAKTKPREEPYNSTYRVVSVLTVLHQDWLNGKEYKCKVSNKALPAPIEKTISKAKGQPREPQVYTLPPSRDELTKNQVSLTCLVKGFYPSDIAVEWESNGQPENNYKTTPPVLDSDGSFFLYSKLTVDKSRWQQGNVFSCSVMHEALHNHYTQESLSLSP
light: B1 light
notes: mutation in both H chains; also called Ho Ab Q295_05P; Q295P
B6: GpH7-B3 variant Q295_07I/GpL16-k0 (antibody, human IgG1, kappa)
heavy: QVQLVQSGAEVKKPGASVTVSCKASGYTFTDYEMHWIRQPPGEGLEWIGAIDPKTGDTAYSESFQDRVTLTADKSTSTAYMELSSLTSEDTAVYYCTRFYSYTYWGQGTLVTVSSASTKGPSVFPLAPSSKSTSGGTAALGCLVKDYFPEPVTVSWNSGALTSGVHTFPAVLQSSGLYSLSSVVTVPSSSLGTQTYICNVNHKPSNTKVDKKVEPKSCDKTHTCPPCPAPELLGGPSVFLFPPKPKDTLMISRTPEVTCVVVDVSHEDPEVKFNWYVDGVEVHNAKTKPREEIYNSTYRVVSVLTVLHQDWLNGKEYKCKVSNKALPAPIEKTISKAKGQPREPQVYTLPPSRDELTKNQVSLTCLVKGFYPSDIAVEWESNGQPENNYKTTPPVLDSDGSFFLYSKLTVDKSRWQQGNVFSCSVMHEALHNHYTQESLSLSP
light: B1 light
notes: mutation in both H chains; also called Ho Ab Q295_07I; Q295I
B7: GpH7-B3 variant P329_02A/GpL16-k0 (antibody, human IgG1, kappa)
heavy: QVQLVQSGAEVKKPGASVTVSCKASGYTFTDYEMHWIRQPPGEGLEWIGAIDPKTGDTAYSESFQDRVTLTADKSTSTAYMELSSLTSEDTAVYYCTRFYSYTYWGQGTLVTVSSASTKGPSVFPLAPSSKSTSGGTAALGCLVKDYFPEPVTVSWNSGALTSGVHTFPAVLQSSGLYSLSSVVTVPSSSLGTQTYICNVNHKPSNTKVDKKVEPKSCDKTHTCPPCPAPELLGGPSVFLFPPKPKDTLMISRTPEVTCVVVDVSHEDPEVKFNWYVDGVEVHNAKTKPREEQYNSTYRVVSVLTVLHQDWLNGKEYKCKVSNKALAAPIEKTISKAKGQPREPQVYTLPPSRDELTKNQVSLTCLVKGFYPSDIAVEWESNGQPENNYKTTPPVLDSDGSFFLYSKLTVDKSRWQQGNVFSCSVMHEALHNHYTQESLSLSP
light: B1 light
notes: mutation in both H chains; also called Ho Ab P329_02A; P329A
B8: GpH7-B3 variant Q295_08L/GpL16-k0 (antibody, human IgG1, kappa)
heavy: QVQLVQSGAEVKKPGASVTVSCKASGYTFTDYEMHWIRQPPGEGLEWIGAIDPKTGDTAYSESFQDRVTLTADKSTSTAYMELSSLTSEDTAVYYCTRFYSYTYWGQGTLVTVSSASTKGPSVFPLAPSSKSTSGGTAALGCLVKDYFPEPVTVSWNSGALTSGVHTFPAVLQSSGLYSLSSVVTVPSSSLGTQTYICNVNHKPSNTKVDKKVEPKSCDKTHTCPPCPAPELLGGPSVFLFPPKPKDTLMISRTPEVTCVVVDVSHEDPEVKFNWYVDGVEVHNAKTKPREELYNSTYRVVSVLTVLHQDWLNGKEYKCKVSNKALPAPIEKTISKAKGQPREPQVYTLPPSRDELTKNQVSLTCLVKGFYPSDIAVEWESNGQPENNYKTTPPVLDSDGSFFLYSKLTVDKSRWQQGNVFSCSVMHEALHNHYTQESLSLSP
light: B1 light
notes: mutation in both H chains; also called Ho Ab Q295_08L; Q295L
B9: GpH7-B3 variant P271_16H/GpL16-k0 (antibody, human IgG1, kappa)
heavy: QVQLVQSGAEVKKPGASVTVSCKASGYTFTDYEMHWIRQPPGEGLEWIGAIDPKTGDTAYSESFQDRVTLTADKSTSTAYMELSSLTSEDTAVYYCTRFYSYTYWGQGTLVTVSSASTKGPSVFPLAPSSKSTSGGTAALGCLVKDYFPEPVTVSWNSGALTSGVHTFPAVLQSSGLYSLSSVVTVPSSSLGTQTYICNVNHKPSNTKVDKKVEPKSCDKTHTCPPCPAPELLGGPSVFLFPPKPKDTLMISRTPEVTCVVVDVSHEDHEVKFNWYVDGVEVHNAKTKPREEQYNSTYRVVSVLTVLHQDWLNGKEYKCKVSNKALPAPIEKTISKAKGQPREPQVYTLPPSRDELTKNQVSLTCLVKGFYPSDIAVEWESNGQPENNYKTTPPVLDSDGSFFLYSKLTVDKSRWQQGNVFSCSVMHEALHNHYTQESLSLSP
light: B1 light
notes: mutation in both H chains; also called Ho Ab P271_16H; P271H
B10: GpH7-B3 variant P329_01G/GpL16-k0 (antibody, human IgG1, kappa)
heavy: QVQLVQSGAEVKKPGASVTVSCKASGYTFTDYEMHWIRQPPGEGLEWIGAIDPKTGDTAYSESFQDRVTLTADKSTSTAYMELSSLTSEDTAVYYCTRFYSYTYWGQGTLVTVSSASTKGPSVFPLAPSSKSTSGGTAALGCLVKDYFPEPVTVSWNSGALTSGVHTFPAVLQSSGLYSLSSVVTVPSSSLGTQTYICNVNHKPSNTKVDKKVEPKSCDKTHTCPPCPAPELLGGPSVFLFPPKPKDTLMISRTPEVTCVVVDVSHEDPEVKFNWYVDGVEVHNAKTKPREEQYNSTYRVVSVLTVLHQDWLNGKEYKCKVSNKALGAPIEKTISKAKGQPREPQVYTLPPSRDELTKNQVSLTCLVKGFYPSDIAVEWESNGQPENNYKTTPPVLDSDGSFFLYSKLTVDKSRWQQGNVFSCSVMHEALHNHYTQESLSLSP
light: B1 light
notes: mutation in both H chains; also called Ho Ab P329_01G; P329G
B11: GpH7-B3 variant Q295_03V/GpL16-k0 (antibody, human IgG1, kappa)
heavy: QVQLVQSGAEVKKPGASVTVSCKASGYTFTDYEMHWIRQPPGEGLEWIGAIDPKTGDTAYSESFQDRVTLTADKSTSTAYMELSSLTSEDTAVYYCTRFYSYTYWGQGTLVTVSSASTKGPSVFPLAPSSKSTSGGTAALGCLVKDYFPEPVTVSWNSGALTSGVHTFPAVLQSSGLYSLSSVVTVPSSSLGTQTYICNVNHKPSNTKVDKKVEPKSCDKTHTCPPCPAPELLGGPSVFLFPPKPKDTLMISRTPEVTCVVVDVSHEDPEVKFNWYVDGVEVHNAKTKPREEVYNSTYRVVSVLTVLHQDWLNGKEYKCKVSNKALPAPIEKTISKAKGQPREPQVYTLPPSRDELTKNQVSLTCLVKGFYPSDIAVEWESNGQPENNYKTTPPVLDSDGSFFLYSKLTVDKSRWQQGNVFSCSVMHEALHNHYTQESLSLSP
light: B1 light
notes: mutation in both H chains; also called Ho Ab Q295_03V; Q295V
B12: GpH7-B3 variant Q295_04F/GpL16-k0 (antibody, human IgG1, kappa)
heavy: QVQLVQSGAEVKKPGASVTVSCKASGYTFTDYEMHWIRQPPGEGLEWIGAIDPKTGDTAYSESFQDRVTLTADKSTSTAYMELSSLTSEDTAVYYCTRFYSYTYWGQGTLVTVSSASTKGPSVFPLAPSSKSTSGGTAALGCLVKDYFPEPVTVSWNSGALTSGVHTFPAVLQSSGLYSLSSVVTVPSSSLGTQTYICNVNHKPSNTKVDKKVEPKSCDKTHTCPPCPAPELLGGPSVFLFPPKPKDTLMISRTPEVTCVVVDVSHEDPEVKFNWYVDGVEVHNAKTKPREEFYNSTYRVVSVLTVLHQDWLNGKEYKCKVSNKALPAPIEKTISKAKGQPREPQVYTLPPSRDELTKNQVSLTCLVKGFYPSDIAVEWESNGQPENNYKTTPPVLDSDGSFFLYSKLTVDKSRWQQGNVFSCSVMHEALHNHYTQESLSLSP
light: B1 light
notes: mutation in both H chains; also called Ho Ab Q295_04F; Q295F
B13: GpH7-A5/GpH7-B3 variant N325_10E/GpL16-k0 (antibody, human IgG1, kappa)
heavy 1: not shown
heavy 2: not shown
light: B1 light
notes: Heterodimerized anti-glypican-3 IgG1; mutation in the GpH7-B3 H chain only; also called He Ab
B14: GpH7-A5/GpH7-B3 variant N325_07I/GpL16-k0 (antibody, human IgG1, kappa)
heavy 1: not shown
heavy 2: not shown
light: B1 light
notes: as for B13
B15: GpH7-A5/GpH7-B3 variant N325_06M/GpL16-k0 (antibody, human IgG1, kappa)
heavy 1: not shown
heavy 2: not shown
light: B1 light
notes: as for B13
B16: GpH7-A5/GpH7-B3 variant N325_09D/GpL16-k0 (antibody, human IgG1, kappa)
heavy 1: not shown
heavy 2: not shown
light: B1 light
notes: as for B13
B17: GpH7-A5/GpH7-B3 variant N325_08L/GpL16-k0 (antibody, human IgG1, kappa)
heavy 1: not shown
heavy 2: not shown
light: B1 light
notes: as for B13
B18: GpH7-A5/GpH7-B3 variant N325_05P/GpL16-k0 (antibody, human IgG1, kappa)
heavy 1: not shown
heavy 2: not shown
light: B1 light
notes: as for B13

target: T4, FcγRIa extracellular domain with C-terminal His tag (human, UniProt P12314 16-292); assay: SPR Biacore, relative binding amount
T4 construct: extracellular domain; Soluble receptor expressed in FreeStyle293 cells and used as analyte in Biacore; also called FcgRI; 1a; not shown: His tag at the C terminus
T4 sequence (P12314 16-292): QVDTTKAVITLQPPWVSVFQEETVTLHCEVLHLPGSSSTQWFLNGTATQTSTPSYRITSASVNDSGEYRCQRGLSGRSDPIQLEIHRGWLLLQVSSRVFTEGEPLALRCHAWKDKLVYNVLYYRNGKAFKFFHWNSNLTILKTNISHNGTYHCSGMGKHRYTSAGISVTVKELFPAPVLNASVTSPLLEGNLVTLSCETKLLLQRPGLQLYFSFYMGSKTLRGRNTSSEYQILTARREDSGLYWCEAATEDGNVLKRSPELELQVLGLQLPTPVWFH

He/Con_1a	Binder
104 % of GpH7-A5/GpH7-B3/GpL16-k0 (=100)	B1

target: T1, FcγRIIb extracellular domain with …; assay: SPR Biacore, relative binding amount

He/Con_2b	Binder
82.3 % of GpH7-A5/GpH7-B3/GpL16-k0 (=100)	B1

target: T5, FcγRIa extracellular domain with C-terminal His tag (human, UniProt P12314 16-292); assay: SPR Biacore, relative FcγRIa binding vs GpH7-B3/GpL16-k0
T5 construct: extracellular domain; also called FcgRI; CD64; not shown: His tag at the C terminus
T5 sequence (P12314 16-292): as above

Ho/Con_1a	Binder
96.8 % of HoCon Ab (=100)	B2
99.5 % of HoCon Ab (=100)	B3
99.4 % of HoCon Ab (=100)	B4
101 % of HoCon Ab (=100)	B5
101 % of HoCon Ab (=100)	B6
98.2 % of HoCon Ab (=100)	B7
103 % of HoCon Ab (=100)	B8
99.4 % of HoCon Ab (=100)	B9
89.5 % of HoCon Ab (=100)	B10
102 % of HoCon Ab (=100)	B11
100 % of HoCon Ab (=100)	B12

target: T2, FcγRIIa H; assay: SPR (Biacore), captured antibody, FcγR analyte; relative to GpH7-A5/GpH7-B3/GpL16-k0 = 100
Description: (§1) The heterodimerized antibodies He Abs in which one of the H chains was introduced with an alteration were assayed for their binding activities to each activating FcγR and inhibitory FcγR according to the method described in Example 4. […] The activating FcγRs in FIGS. 26, 27, 28, and 29 are FcγRIa, FcγRIIa (R), FcγRIIa (H), and FcγRIIIa, respectively.
(§2) Analysis of interaction between objective antibody and the FcγR was carried out using Biacore T100 (GE Healthcare). HBS-EP+ (GE Healthcare) was used as the running buffer, and the measurement temperature was set to 25° C. Chips produced by immobilizing the antigen peptide by the amine coupling method to a Series S Sencor Chip CM5 (GE Healthcare), or alternatively, chips produced by allowing preliminarily biotinylated antigen peptides to interact with and immobilize onto a Series S Sensor Chip SA (certified) (GE Healthcare) were used. Antibodies of interest were captured onto an antigen peptide-immobilized chip, and allowed to interact to each FcγR diluted with running buffer. To regenerate and repeatedly use the chip, the antibodies captured on the chip were washed off by reacting 10 mM glycine-HCl, pH 1.5.

He/Con_2aH	Binder
52.5 relative (control = 100)	B13
38.1 relative (control = 100)	B14
48.2 relative (control = 100)	B15
53.1 relative (control = 100)	B16
52 relative (control = 100)	B17
20.7 relative (control = 100)	B18

target: T3, FcγRIIb; assay: as above
Description: as §1, §2

He/Con_2b	Binder
95.9 relative (control = 100)	B13
171 relative (control = 100)	B14
217 relative (control = 100)	B15
124 relative (control = 100)	B16
197 relative (control = 100)	B17
26 relative (control = 100)	B18

target: T2, FcγRIIa H; assay: SPR (Biacore); He/Con_2aH divided by He/Con_2b (FcγRIIb) of the same antibody

He_2aH/2b [ratio]	Binder
0.55	B13
0.22	B14
0.22	B15
0.43	B16
0.26	B17
0.8	B18

target: T4, FcγRIa extracellular domain with …; assay: SPR Biacore; relative binding to FcγRIa divided by that to FcγRIIb

Ia/IIb He_1a/2b	Binder
1.26 ratio of He/Con_1a to He/Con_2b	B1
